Results published in patent publication US6680174.

Target: mouse GDF-9 receptor on granulosa cells (mouse)
Assay: cell-based or functional assay

- COX-2 mRNA (RT-PCR) after 24 hours with 100 ng/ml GDF-9: 50 fold
- HAS2 expression (RT-PCR) after 5 hours, 50 ng/ml and 100 ng/ml mGDF-9 against 10 ng/ml: 5 to 10 fold
- HAS2 expression (RT-PCR), granulosa cells cultured ~20 hrs with mGDF-9 media, against CHO control: 10 fold
- HAS2 mRNA (Northern blot, 4.8 kb and 3.2 kb forms) after 5 hours with 50 ng/ml GDF-9: 9.7 fold
- LH receptor mRNA (RT-PCR) with 10 ng/ml FSH, control-treated against cells treated with 100 ng/ml GDF-9: 30 fold
- cumulus expansion of oocytectomized complexes cultured 18 hours with 100 ng/ml GDF-9 (out of 44 complexes): 40
- fold decrease in HAS2 expression without GDF-9 (0-24 hours) against the peak level induced by 100 ng/ml GDF-9: 10 fold
- uPA RT-PCR band intensity at 5 hours, 100 ng/ml GDF-9, normalized to HPRT: 15 % of control
- uPA RT-PCR band intensity at 9 hours, 100 ng/ml GDF-9, normalized to HPRT: 9 % of control
- uPA mRNA (Northern blot) with 50 ng/ml GDF-9: 40 % of control
B1: recombinant mouse GDF-9, cleaved, mature, glycosylated form (21 kD) (ligand, UniProt Q07105 307-441, looked up)
chain: GQKAIRSEAKGPLLTASFNLSEYFKQFLFPQNECELHDFRLSFSQLKWDNWIVAPHRYNPRYCKGDCPRAVRHRYGSPVHTMVQNIIYEKLDPSVPRPSCVPGKYSPLSVLTIEPDGSIAYKEYEDMIATRCTCR
modifications: one N-linked oligosaccharide (single N-linked glycosylation site, Asn325)
